B1: OeTDC1 (Olea europaea subsp. europaea) (protein)
chain: MGSLQNQKPENGFTGAPIKPLDPEEFRRQGHMVIDFLADYYKNVEKYPVRSQVQPGYLRKRLPESAPHEPEPIEEILQDVQKDIVPGITHWQSPNYYAYFPSSGSIAGFLGEMLSTGFNVVGFNWMSSPAATELESIVMDWLGKMLNLPSSFLFSGGGGGVLQGTTCEGILCTLVAARDQMLNKIGRDNIGKLVVYGSDQTHSALQKAAQIAGIEPKNFRAVQTTKATAFGLTAEALRSTIESDVEAGLVPLFLCPTVGTTSSTAVDPIGPLCEVAKEYGMWVHVDAAYAGSACILPEYRHFLDGVENADSFSFNAHKWFLTTLDCCCLWVKNPSALVKALSTYPEYLRNKATDSNQVVDYKDWQITLSRRFRSLKLWLVLRSYGVANLRKFLRSHIQMAKNFEGLIGMDKRFEVVVPRNFATVCFRISPIEIGKNHIVSKEEVTNEFNSKLLESINEAGKIYVTHAVIGGVYVIRFCVGTTLTENRHVILAWKTIQEHANALLSMS

Legend:
OeTDC1 = molecular target: T1, OeTDC1 (Olea europaea, UniProt A0AB74UCV8); experiment: activity of enzyme extracted and purified with or without PLP; assay type: biochemical; conditions: PLP in or omitted from lysis and purification buffers; tightly bound cofactor
T1 construct: gene TDC1

OeTDC2 = molecular target: T2, OeTDC2 (Olea europaea, UniProt A0A8S0SA91); experiment: as above; assay type: biochemical; conditions: PLP in or omitted from lysis and purification buffers; tightly bound cofactor
T2 construct: gene OLEA9_A073377

purified protein [1] = substrate: N[C@@H](Cc1ccc(O)cc1)C(=O)O; experiment: purified protein; assay type: biochemical, Olea europaea; conditions: 50 mM Tris-HCl pH 8.0, 40 °C, 200 µM PLP, 15 min
purified protein [2] = substrate: N[C@@H](Cc1ccc(O)c(O)c1)C(=O)O; experiment: purified protein; assay type: biochemical, Olea europaea; conditions: 50 mM Tris-HCl pH 8.0, 40 °C, 200 µM PLP, 15 min

T2 sequence (A0A8S0SA91 entry or part of it): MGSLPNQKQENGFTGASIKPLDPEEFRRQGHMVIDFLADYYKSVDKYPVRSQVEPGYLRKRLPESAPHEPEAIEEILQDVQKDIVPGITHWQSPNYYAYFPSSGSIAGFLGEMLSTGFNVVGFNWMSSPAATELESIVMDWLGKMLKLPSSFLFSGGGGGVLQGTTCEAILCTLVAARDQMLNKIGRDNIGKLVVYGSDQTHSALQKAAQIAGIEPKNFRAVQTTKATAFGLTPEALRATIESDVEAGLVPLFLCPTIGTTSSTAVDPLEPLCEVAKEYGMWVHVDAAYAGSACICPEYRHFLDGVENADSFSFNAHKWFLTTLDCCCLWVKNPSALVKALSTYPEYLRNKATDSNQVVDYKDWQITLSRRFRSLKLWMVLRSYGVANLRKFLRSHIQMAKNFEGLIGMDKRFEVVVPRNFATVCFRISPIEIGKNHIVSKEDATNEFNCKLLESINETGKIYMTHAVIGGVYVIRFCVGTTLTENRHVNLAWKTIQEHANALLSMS

| Molecule | activity of enzyme extracted and purified with or without PLP (OeTDC1) | activity of enzyme extracted and purified with or without PLP (OeTDC2) | Km (purified protein [1]) | Vmax (purified protein [1]) | kcat (purified protein [1]) | kcat/Km (purified protein [1]) | Km (purified protein [2]) | Vmax (purified protein [2]) | kcat (purified protein [2]) | kcat/Km (purified protein [2]) |
| --- | --- | --- | --- | --- | --- | --- | --- | --- | --- | --- |
| Cc1ncc(COP(=O)(O)O)c(C=O)c1O [PLP] | it was observed that PLP binds tightly to the olive TDC proteins | it was observed that PLP binds tightly to the olive TDC proteins | – | – | – | – | – | – | – | – |
| B1 | – | – | 1900 µM | 12.4 µmol/min/mg | 12.8 s⁻¹ | 6720 M⁻¹ s⁻¹ | 340 µM | 4.08 µmol/min/mg | 3.82 s⁻¹ | 11300 M⁻¹ s⁻¹ |

— PMC11507401, “Functional and Physiological Characterization of Tyrosine Decarboxylases from Olea europaea L. Involved in the Synthesis of the Main Phenolics in Olive Fruit and Virgin Olive Oil” (International Journal of Molecular Sciences, 2024)
